This is an account of results in publication PMC12421958, “Dual regulatory role of cyclic di-GMP via the DgcY/HhmR complex in salt response of Halomonas hydrothermalis Y2” (mBio, 2025).

Test [1] has as its target T1, DgcY222–406.
T1 construct: gene dgcY; GGDEF domain 222-406 only, TM and helical (HD) regions removed; pET24a, E. coli BL21(DE3), His-tag
Nature of the test: microscale thermophoresis (MST). Particulars: 25 °C, PBS-T; without HhmR; His-tag protein labelled with RED-tris-NTA. In kind it is binding, Vreelandella hydrothermalis.

In test [2] the target is T2, DgcY202–406.
T2 construct: gene dgcY; intracellular fragment 202-406 (helical domain 203-221 + GGDEF 222-406) of 406-residue protein, TM domain removed; pET24a, E. coli BL21(DE3), His-tag, labelled by RED-tris-NTA for MST
Nature of the test: microscale thermophoresis (MST). The test is classed as binding, Vreelandella hydrothermalis. Conditions: 25 °C, PBS-T; without HhmR; His-tag protein labelled with RED-tris-NTA. (In general: Microscale thermophoresis detects binding through changes in fluorescence in a small temperature gradient.)

The target of test [3] is DgcY_(202–406) (Halomonas hydrothermalis Y2). Nature of the test: MST; as a3, buffer containing 2.5 µM c-di-GMP.
For test [4] the target is unchanged. Nature of the test: MST; His-tagged protein labelled with Red-tris-NTA, ligand in twofold serial dilutions, PBS-T buffer, 25°C; no c-di-GMP.
The target is the same in test [5].
The target is the same in test [6]. The source holds these as a separate data set.
Test [7] has the same target. Nature of the test: MST; as a3, buffer containing 0.5 µM c-di-GMP.
Test [8] has the same target. Nature of the test: MST; as a3, buffer containing 15 µM c-di-GMP.

Usually Kd stands for a measure of binding affinity in units of concentration. Read a high Kd as a looser complex.

On to `Nc1nc2c(ncn2[C@@H]2O[C@@H]3COP(=O)(O)O[C@H]4[C@@H](O)[C@H](n5cnc6c(=O)[nH]c(N)nc65)O[C@@H]4COP(=O)(O)O[C@H]3[C@H]2O)c(=O)[nH]1` [c-di-GMP], for which the values for the Kd in test [1] and in test [2] were 1170 µM and 53.2 µM, respectively.
HhmR (natural protein): the Kd in test [3] turned out to be 0.0905 µM; in test [4] it was 8.96 µM; in test [7], 0.105 µM; in test [8], 0.0341 µM. In test [5], this molecule returned a c-di-GMP made by 10 µM DgcY202-406 with 15 µM HhmR, HPLC, 37°C, 2 to 8 h (with HhmR 9.47 µM at 3 h and 25.50 µM at 8 h; without HhmR 12.41 and 31.38 µM) of 25.5 µM. For the same molecule, the c-di-GMP made by DgcY202-406 with HhmR and 15 µM added c-di-GMP, HPLC, 37°C, 8 h (38 µM without added c-di-GMP) in test [6] was 30 µM.
In test [4], HhmR_(90–305) (domain or fragment) showed a Kd of 0.053 µM.
Same read-out and setting: under “HhmR_(90–305)^Q240D (domain or fragment)” stands 0.571 µM.
